This passage reports response results from paper PMC3663837.

The target of one experiment is SUMO-StPTB1. The experiment can be described thus: phage ELISA. The note with it: parent: est. 0.18; read off a plot.
For another experiment, the target named is SUMO-StPTB6. The experiment can be described thus: phage ELISA. The note with it: parent: est. 0.19; read off a plot.

Regarding “phage-displayed StNova1 subdomain S2 G7del; G11del; G15del; G18del”, the response with SUMO-StPTB1 and with SUMO-StPTB6 was 0.079 λ490 each time.

Turning to “phage-displayed StNova1 subdomain S2 G7del; G11del; P13del”, the response in the experiment with SUMO-StPTB1 is 0.044 λ490; in the experiment with SUMO-StPTB6, 0.043 λ490.

Take “phage-displayed StNova1 subdomain S2 G15del; G18del; P21del”: the response with SUMO-StPTB1 is 0.11 λ490; in the experiment with SUMO-StPTB6, 0.13 λ490.
